Measurements from paper PMC5501724, “Structural Basis for Specific Interaction of TGFβ Signaling Regulators SARA/Endofin with HD-PTP” (Structure(London, England:1993), 2017).
Ends that are not written are not given here.

Tests used:
[1] = biological target: T1, HD-PTPBro1-CC (1-714) (Homo sapiens, UniProt Q9H3S7); assay: Biosensor (SPR) binding of peptides to HD-PTPBro1-CC; conditions: 10 mM HEPES pH 7.4, 150 mM NaCl, 0.05% Tween 20, 25°C; for Binding to HD-PTPBro1-CC (sensogram): compared with wild-type endofin peptide, result in words
T1 construct: HD-PTPBro1-CC (1-714) and AlixBro1 (1-359) were cloned in a pET28a vector; made in house; host or cells: E. coli BL21 (DE3)
T1 sequence (Q9H3S7 1-714): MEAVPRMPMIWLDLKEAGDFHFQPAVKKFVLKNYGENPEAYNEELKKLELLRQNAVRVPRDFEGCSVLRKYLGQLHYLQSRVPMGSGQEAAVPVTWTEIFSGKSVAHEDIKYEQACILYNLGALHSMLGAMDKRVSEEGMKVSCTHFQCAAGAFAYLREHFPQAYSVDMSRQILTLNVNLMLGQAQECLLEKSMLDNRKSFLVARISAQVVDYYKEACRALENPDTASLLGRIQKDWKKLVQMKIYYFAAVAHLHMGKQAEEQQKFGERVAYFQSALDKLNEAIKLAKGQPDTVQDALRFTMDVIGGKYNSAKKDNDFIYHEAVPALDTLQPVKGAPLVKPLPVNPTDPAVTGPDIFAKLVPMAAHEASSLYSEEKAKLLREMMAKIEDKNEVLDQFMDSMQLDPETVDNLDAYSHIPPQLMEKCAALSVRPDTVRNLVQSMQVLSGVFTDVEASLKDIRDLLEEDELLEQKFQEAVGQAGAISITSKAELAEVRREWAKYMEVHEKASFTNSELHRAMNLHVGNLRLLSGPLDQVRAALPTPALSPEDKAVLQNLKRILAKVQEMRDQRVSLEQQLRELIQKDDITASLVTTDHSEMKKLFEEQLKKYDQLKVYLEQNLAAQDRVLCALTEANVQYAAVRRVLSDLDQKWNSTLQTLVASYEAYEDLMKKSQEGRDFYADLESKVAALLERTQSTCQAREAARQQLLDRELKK
Method: (§1) Biosensor based binding experiments were performed using a ProteOn XPR36 surface Plasmon resonance instrument (Bio-Rad Laboratories). The ProteOn XPR36 is multiplex system that can be used to provide simultaneous flow of up to six analyte channels (A1-A6) over up to six ligand channels (L1-L6). The running buffer used was 10 mM HEPES pH 7.4, 150 mM NaCl, 0.05% Tween 20. Immobilization of His6-tagged HD-PTP and a negative control protein, His6-tagged MptpB, was performed on a HTE chip (Bio-Rad Laboratories) in the vertical orientation. Proteins were diluted in running buffer to a final concentration of 50-100 μg/ml and 150 μl was injected at a flow rate of 30 μl/min The immobilization level of proteins was typically 5000-8000 response unit (RU). All experiments were performed at 25°C. Synthetic peptides spanning the binding regions of CHMP4 A, B and C, and SARA and endofin, were obtained from Generon Ltd, UK. For equilibrium binding measurements these peptides were used as analytes. Peptide stocks were prepared in running buffer just prior the binding experiments. Peptides were injected (50 μl at 100 μl/min) in the horizontal orientation using five serially diluted peptide concentrations (channels A1-A5) alongside a buffer control (channel A6). Peptide concentrations were chosen to give a suitable spread of responses below and above half-maximal binding.
(§2) All the binding sensograms were collected, processed and analyzed using the integrated ProteOn Manager software (Bio-Rad Laboratories), using the equilibrium binding mode: Response = [A] ^∗ Rmax/([A] + KD), where [A] is the analyte concentration and Rmax is the maximum response. At least 3 independent replicates were performed for each experiment. Values in the text and figure legends indicate mean +/- SD (standard deviation).

[2] = biological target: T2, HD-PTPBro1 (Bro1 domain of HD-PTP, 1-361) (Homo sapiens, UniProt Q9H3S7); assay: Biosensor (SPR) binding of peptides to HD-PTPBro1; conditions: 10 mM HEPES pH 7.4, 150 mM NaCl, 0.05% Tween 20, 25°C; for Binding to HD-PTPBro1 (sensogram): compared with wild-type endofin peptide, result in words
T2 construct: HD-PTPBro1 (1-361) was cloned in a pNIC28-Bsa4 vector; made in house; host or cells: E. coli BL21 (DE3)
T2 sequence (Q9H3S7 1-361): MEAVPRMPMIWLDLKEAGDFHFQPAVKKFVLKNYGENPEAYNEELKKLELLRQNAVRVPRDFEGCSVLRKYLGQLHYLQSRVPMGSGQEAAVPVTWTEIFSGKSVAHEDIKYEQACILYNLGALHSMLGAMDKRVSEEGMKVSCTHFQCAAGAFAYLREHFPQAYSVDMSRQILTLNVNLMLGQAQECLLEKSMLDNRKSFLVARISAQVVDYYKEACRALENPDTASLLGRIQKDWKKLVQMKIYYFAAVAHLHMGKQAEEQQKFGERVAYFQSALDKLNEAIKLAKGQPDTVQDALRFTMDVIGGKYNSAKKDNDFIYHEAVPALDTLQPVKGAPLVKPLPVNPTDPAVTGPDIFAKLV
Method: as §1, §2

[3] = biological target: T3, His6-HD-PTP_(Bro1) (1-361) (human, UniProt Q9H3S7 1-361); assay: SPR; ProteOn XPR36; His6-tagged proteins immobilised on a HTE chip (5000-8000 RU); synthetic peptides as analytes, five concentrations; 10 mM HEPES pH 7.4, 150 mM NaCl, 0.05% Tween 20; 25°C; equilibrium binding fit; conditions: both partners purified
T3 construct: HD-PTP/PTPN23, Bro1 domain, residues 1-361; Immobilised by its His6 tag on the HTE chip; also called HD-PTP Bro1 domain; source: E. coli BL21 (DE3), purified (Nickel-beads, MonoQ, Superdex 200); not shown: His6, N-terminal, kept
T3 sequence (looked up): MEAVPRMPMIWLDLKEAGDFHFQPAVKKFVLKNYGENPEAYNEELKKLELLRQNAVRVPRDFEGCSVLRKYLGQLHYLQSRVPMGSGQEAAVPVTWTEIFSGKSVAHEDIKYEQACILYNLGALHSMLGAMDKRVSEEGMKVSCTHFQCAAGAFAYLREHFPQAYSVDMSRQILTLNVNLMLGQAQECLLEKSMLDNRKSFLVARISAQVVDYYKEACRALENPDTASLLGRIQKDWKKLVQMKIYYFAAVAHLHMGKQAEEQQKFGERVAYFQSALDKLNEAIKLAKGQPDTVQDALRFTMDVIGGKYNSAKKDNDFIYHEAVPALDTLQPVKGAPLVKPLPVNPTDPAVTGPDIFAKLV

[4] = biological target: T4, His6-HD-PTP_(Bro1-CC) (1-714), bacterially expressed (human, UniProt Q9H3S7 1-714); assay: as above; conditions: both partners purified
T4 construct: HD-PTP/PTPN23, Bro1 and coiled-coil domains, residues 1-714; also called His-HD-PTP; source: E. coli BL21 (DE3), purified (Nickel-beads, MonoQ, Superdex 200); not shown: His6, N-terminal, kept
T4 sequence (looked up): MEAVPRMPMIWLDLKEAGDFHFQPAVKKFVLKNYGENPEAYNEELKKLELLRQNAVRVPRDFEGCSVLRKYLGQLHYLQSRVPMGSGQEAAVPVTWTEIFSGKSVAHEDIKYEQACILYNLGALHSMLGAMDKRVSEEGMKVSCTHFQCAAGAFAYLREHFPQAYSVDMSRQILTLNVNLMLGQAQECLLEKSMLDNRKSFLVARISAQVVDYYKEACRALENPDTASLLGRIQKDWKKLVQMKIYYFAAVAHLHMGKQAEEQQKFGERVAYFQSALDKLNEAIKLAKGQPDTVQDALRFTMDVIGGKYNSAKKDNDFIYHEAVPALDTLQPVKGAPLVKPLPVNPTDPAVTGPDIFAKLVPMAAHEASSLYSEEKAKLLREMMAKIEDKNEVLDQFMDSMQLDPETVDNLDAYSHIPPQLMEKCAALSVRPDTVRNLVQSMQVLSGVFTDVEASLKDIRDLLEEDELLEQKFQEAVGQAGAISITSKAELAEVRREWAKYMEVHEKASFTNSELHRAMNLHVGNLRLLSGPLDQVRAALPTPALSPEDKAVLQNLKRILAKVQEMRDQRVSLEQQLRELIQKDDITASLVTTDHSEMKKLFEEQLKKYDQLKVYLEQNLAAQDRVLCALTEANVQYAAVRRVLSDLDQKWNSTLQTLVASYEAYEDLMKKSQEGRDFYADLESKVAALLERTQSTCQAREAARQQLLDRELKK

[5] = biological target: T5, Endofin (Homo sapiens (Human), UniProt Q7Z3T8); assay: SPR equilibrium, peptide analyte
T5 chain: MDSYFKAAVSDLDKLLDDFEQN

[6] = listed as endofin L15 to proline
[7] = listed as endofin peptide containing the L15P mutation

In the case of KAAVSDLDKLLDDFEQN, the “Binding to HD-PTPBro1-CC (sensogram)” value [1] is reported as “poor binding”, the Kd ([1]; poor binding, read-out: Binding (affinity bound) to HD-PTPBro1-CC) is reported as > 1.5 mM and the “Binding to HD-PTPBro1 (sensogram)” value [2] is reported as “poor binding”. For the same molecule, the Kd ([2]; poor binding, read-out: Binding (affinity bound) to HD-PTPBro1) was > 1.5 mM.

For “endofin1–22(L15P): endofin 22-mer peptide containing the L15P mutation (MDSYFKAAVSDLDKPLDDFEQN)”, the “Binding to HD-PTPBro1-CC (sensogram)” value [1, 6] was “abolishes binding”, the “Binding to HD-PTPBro1-CC (sensogram)” value [1, 7] was “did not bind” and the “Binding to HD-PTPBro1 (sensogram)” value [2, 6] was “abolishes binding”. For the same molecule, the “Binding to HD-PTPBro1 (sensogram)” value [2, 7] was “did not bind”.

B1: CHMP4B C-terminal peptide (peptide)
chain: KKKEEEDDDMKELENWAGSM
B1 showed a Kd [3] of 85 µM.

B2: shorter endofin peptide lacking 1-MDSYF-5 (peptide)
chain: KAAVSDLDKLLDDFEQN
modifications: C-terminal limit not given; taken as residue 22, the end of the 22-mer endofin peptide
B2 was tested, and the Kd [4] was > 1.5 mM and the Kd [3] was > 1500 µM.

B3: ALIX_Bro1 (protein)
chain: MATFISVQLKKTSEVDLAKPLVKFIQQTYPSGGEEQAQYCRAAEELSKLRRAAVGRPLDKHEGALETLLRYYDQICSIEPKFPFSENQICLTFTWKDAFDKGSLFGGSVKLALASLGYEKSCVLFNCAALASQIAAEQNLDNDEGLKIAAKHYQFASGAFLHIKETVLSALSREPTVDISPDTVGTLSLIMLAQAQEVFFLKATRDKMKDAIIAKLANQAADYFGDAFKQCQYKDTLPKEVFPVLAAKHCIMQANAEYHQSILAKQQKKFGEEIARLQHAAELIKTVASRYDEYVNVKDFSDKINRALAAAKKDNDFIYHDRVPDLKDLDPIGKATLVKSTPVNVPISQKFTDLFEKMV
In the case of B3, the Kd [5] is reported as > 12.5 µM.
